Results on three molecules are retold here after article PMC4475461.

In data set [1] the target is T1, HLTF HIRAN domain (Homo sapiens, UniProt Q14527 55-180).
T1 sequence: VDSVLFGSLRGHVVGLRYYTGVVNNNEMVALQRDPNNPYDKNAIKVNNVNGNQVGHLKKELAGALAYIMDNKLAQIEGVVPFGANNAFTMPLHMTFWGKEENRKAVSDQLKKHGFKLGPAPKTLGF
The data set can be described thus: NMR.

Data set [2] addresses T1, HLTF HIRAN domain. The data set can be described thus: NMR. This is another data set of the same source.

Like-named read-outs stand apart in the source and are kept apart here.

B1: d(GCTGATAAAT) duplex (dsDNA)
DNA 1: GCTGATAAAT
DNA 2: ATTTATCAGC
Regarding B1, the binding result with HLTF HIRAN domain [1] is recorded as “no binding”. Regarding GCTGATAAAT (ssDNA) [d(GCTGATAAAT)], the binding result in the data set with HLTF HIRAN domain [1] is “binds”. With TTTTTTTTTT (ssDNA) [dT10 (NMR)], the binding result in the data set with HLTF HIRAN domain [2] was “binds”.
